Experimental data from patent US20180155451A1 (published 2018).

B1: GpH7-B3 variant T335_07I/GpL16-k0 (antibody, human IgG1, kappa)
heavy: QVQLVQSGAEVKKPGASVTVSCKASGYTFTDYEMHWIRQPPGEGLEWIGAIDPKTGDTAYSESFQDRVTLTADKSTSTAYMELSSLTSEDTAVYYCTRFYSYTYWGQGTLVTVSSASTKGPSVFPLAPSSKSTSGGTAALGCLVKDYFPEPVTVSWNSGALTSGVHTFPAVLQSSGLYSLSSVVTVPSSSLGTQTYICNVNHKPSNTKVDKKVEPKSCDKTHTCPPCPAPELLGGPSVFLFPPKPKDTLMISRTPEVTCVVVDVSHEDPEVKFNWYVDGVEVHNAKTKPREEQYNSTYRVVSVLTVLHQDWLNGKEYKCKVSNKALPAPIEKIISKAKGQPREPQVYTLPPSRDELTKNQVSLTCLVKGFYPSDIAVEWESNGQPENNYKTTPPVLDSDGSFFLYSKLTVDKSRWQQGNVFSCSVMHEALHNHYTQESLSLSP
light: DIVMTQSPLSLPVTPGEPASISCQASESLVHSNRNTYLHWYLQKPGQSPQLLIYKVSNRFSGVPDRFSGSGSGTDFTLKISRVEAEDVGVYYCSQNTHVPPTFGQGTKVEIERTVAAPSVFIFPPSDEQLKSGTASVVCLLNNFYPREAKVQWKVDNALQSGNSQESVTEQDSKDSTYSLSSTLTLSKADYEKHKVYACEVTHQGLSSPVTKSFNRGEC
notes: homodimerized IgG1, mutation in both H chains; also called Ho Ab
B2: GpH7-B3 variant T335_10E/GpL16-k0 (antibody, human IgG1, kappa)
heavy: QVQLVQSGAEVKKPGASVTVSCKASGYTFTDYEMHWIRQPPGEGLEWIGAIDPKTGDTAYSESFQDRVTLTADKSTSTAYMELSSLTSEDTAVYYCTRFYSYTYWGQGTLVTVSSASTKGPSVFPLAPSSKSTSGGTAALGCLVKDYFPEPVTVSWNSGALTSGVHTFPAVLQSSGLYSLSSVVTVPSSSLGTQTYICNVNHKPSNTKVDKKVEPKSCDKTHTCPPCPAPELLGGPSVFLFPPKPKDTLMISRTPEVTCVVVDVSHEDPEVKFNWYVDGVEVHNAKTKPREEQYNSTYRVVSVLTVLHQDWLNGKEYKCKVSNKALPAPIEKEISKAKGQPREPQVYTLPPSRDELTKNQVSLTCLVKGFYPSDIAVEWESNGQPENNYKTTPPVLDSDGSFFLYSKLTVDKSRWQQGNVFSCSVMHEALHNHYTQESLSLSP
light: B1 light
notes: as for B1
B3: GpH7-A5/GpH7-B3 variant K334_01G/GpL16-k0 (antibody, human IgG1, kappa)
heavy 1: not shown
heavy 2: not shown
light: B1 light
notes: heterodimerized IgG1, mutation in one H chain only; also called He Ab
B4: GpH7-A5/GpH7-B3 variant K326_10E/GpL16-k0 (antibody, human IgG1, kappa)
heavy 1: not shown
heavy 2: not shown
light: B1 light
notes: as for B3
B5: GpH7-A5/GpH7-B3 variant K326_03V/GpL16-k0 (antibody, human IgG1, kappa)
heavy 1: not shown
heavy 2: not shown
light: B1 light
notes: as for B3
B6: GpH7-A5/GpH7-B3 variant K334_10E/GpL16-k0 (antibody, human IgG1, kappa)
heavy 1: not shown
heavy 2: not shown
light: B1 light
notes: as for B3
B7: GpH7-A5/GpH7-B3 variant I336_06M/GpL16-k0 (antibody, human IgG1, kappa)
heavy 1: not shown
heavy 2: not shown
light: B1 light
notes: as for B3
B8: GpH7-A5/GpH7-B3 variant K334_16H/GpL16-k0 (antibody, human IgG1, kappa)
heavy 1: not shown
heavy 2: not shown
light: B1 light
notes: as for B3
B9: GpH7-A5/GpH7-B3 variant H268_13S/GpL16-k0 (antibody, human IgG1, kappa)
heavy 1: not shown
heavy 2: not shown
light: B1 light
notes: as for B3
B10: GpH7-A5/GpH7-B3 variant A330_08L/GpL16-k0 (antibody, human IgG1, kappa)
heavy 1: not shown
heavy 2: not shown
light: B1 light
notes: as for B3
B11: GpH7-A5/GpH7-B3 variant S337_10E/GpL16-k0 (antibody, human IgG1, kappa)
heavy 1: not shown
heavy 2: not shown
light: B1 light
notes: as for B3
B12: GpH7-A5/GpH7-B3 variant I332_14T/GpL16-k0 (antibody, human IgG1, kappa)
heavy 1: not shown
heavy 2: not shown
light: B1 light
notes: as for B3
B13: GpH7-A5/GpH7-B3 variant I336_03V/GpL16-k0 (antibody, human IgG1, kappa)
heavy 1: not shown
heavy 2: not shown
light: B1 light
notes: as for B3
B14: GpH7-A5/GpH7-B3 variant Q295_14T/GpL16-k0 (antibody, human IgG1, kappa)
heavy 1: not shown
heavy 2: not shown
light: B1 light
notes: as for B3
B15: GpH7-A5/GpH7-B3 variant K326_19Q/GpL16-k0 (antibody, human IgG1, kappa)
heavy 1: not shown
heavy 2: not shown
light: B1 light
notes: as for B3
B16: GpH7-A5/GpH7-B3 variant K334_13S/GpL16-k0 (antibody, human IgG1, kappa)
heavy 1: not shown
heavy 2: not shown
light: B1 light
notes: as for B3
B17: GpH7-A5/GpH7-B3 variant K326_06M/GpL16-k0 (antibody, human IgG1, kappa)
heavy 1: not shown
heavy 2: not shown
light: B1 light
notes: as for B3
B18: GpH7-A5/GpH7-B3 variant K334_19Q/GpL16-k0 (antibody, human IgG1, kappa)
heavy 1: not shown
heavy 2: not shown
light: B1 light
notes: as for B3
B19: GpH7-A5/GpH7-B3 variant K334_09D/GpL16-k0 (antibody, human IgG1, kappa)
heavy 1: not shown
heavy 2: not shown
light: B1 light
notes: as for B3
B20: GpH7-A5/GpH7-B3 variant S267_02A/GpL16-k0 (antibody, human IgG1, kappa)
heavy 1: not shown
heavy 2: not shown
light: B1 light
notes: as for B3
B21: GpH7-A5/GpH7-B3 variant K334_02A/GpL16-k0 (antibody, human IgG1, kappa)
heavy 1: not shown
heavy 2: not shown
light: B1 light
notes: as for B3
B22: GpH7-A5/GpH7-B3 variant E333_16H/GpL16-k0 (antibody, human IgG1, kappa)
heavy 1: not shown
heavy 2: not shown
light: B1 light
notes: as for B3
B23: GpH7-A5/GpH7-B3 variant I332_09D/GpL16-k0 (antibody, human IgG1, kappa)
heavy 1: not shown
heavy 2: not shown
light: B1 light
notes: as for B3
B24: GpH7-A5/GpH7-B3 variant I336_14T/GpL16-k0 (antibody, human IgG1, kappa)
heavy 1: not shown
heavy 2: not shown
light: B1 light
notes: as for B3
B25: GpH7-A5/GpH7-B3 variant A330_20W/GpL16-k0 (antibody, human IgG1, kappa)
heavy 1: not shown
heavy 2: not shown
light: B1 light
notes: as for B3
B26: GpH7-A5/GpH7-B3 variant Q295_02A/GpL16-k0 (antibody, human IgG1, kappa)
heavy 1: not shown
heavy 2: not shown
light: B1 light
notes: as for B3
B27: GpH7-A5/GpH7-B3 variant I332_02A/GpL16-k0 (antibody, human IgG1, kappa)
heavy 1: not shown
heavy 2: not shown
light: B1 light
notes: as for B3
B28: GpH7-A5/GpH7-B3 variant K334_18N/GpL16-k0 (antibody, human IgG1, kappa)
heavy 1: not shown
heavy 2: not shown
light: B1 light
notes: as for B3
B29: GpH7-A5/GpH7-B3 variant K334_03V/GpL16-k0 (antibody, human IgG1, kappa)
heavy 1: not shown
heavy 2: not shown
light: B1 light
notes: as for B3
B30: GpH7-A5/GpH7-B3 variant K334_04F/GpL16-k0 (antibody, human IgG1, kappa)
heavy 1: not shown
heavy 2: not shown
light: B1 light
notes: as for B3

Molecular target: T1, FcγRIIIa extracellular domain with C-terminal His tag (human, UniProt P08637 17-208)
T1 construct: extracellular domain; also called FcgRIIIa; 3a
T1 sequence (P08637 17-208): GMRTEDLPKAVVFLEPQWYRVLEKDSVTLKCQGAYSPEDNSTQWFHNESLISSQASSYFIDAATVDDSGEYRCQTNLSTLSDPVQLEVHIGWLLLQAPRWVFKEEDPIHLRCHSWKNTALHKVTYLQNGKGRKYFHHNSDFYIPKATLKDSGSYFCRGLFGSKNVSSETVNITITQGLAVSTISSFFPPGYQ
Assay: SPR, relative to GpH7-B3/GpL16-k0

Ho/Con_3a	Binder
107 % of control (=100)	B1
102 % of control (=100)	B2

Molecular target: T1, FcγRIIIa extracellular domain with …
Assay: SPR, relative to GpH7-A5/GpH7-B3/GpL16-k0

He/Con_3a	Binder
121 % of control (=100)	B3
124 % of control (=100)	B4
122 % of control (=100)	B5
181 % of control (=100)	B6
109 % of control (=100)	B7
134 % of control (=100)	B8
122 % of control (=100)	B9
124 % of control (=100)	B10
105 % of control (=100)	B11
120 % of control (=100)	B12
112 % of control (=100)	B13
115 % of control (=100)	B14
106 % of control (=100)	B15
145 % of control (=100)	B16
115 % of control (=100)	B17
136 % of control (=100)	B18
160 % of control (=100)	B19
150 % of control (=100)	B20
147 % of control (=100)	B21
103 % of control (=100)	B22
207 % of control (=100)	B23
108 % of control (=100)	B24
104 % of control (=100)	B25
106 % of control (=100)	B26
112 % of control (=100)	B27
136 % of control (=100)	B28
150 % of control (=100)	B29
148 % of control (=100)	B30
